Laboratory results from PMC5014685 (Structure (London, England : 1993), 2016).

B1: IQGAP2 GTPase-activating protein (GAP)-related domain (residues 875-1257) (domain or fragment, human)
chain: GAMSKERRKTLETYQQLFYLLQTNPLYLAKLIFQMPQNKSTKFMDTVIFTLYNYASNQREEYLLLKLFKTALEEEIKSKVDQVQDIVTGNPTVIKMVVSFNRGARGQNTLRQLLAPVVKEIIDDKSLIINTNPVEVYKAWVNQLETQTGEASKLPYDVTTEQALTYPEVKNKLEASIENLRRVTDKVLNSIISSLDLLPYGLRYIAKVLKNSIHEKFPDATEDELLKIVGNLLYYRYMNPAIVAPDGFDIIDMTAGGQINSDQRRNLGSVAKVLQHAASNKLFEGENEHLSSMNNYLSETYQEFRKYFKEACNVPEPEEKFNMDKYTDLVTVSKPVIYISIEEIISTHSLLLEHQDAIAPEKNDLLSELLGSLGEVPTVESFLGEG
B2: IQGAP1 GTPase-activating protein (GAP)-related domain (residues 962-1345) (domain or fragment)
chain: GAMSKEKREKLEAYQHLFYLLQTNPTYLAKLIFQMPQNKSTKFMDSVIFTLYNYASNQREEYLLLRLFKTALQEEIKSKVDQIQEIVTGNPTVIKMVVSFNRGARGQNALRQILAPVVKEIMDDKSLNIKTDPVDIYKSWVNQMESQTGEASKLPYDVTPEQALAHEEVKTRLDSSIRNMRAVTDKFLSAIVSSVDKIPYGMRFIAKVLKDSLHEKFPDAGEDELLKIIGNLLYYRYMNPAIVAPDAFDIIDLSAGGQLTTDQRRNLGSIAKMLQHAASNKMFLGDNAHLSIINEYLSQSYQKFRRFFQTACDVPELQDKFNVDEYSDLVTLTKPVIYISIGEIINTHTLLLDHQDAIAPEHNDPIHELLDDLGEVPTIESLIGESS

Key:
[1] = target: human hydrolase deficient (Q61L) Rac1 (residues 1-177), GTP-bound (human, UniProt P63000 1-177, Q61L); test: ITC
[2] = target: B1; test: ITC
[3] = target: B2; test: ITC
[4] = target: B1; test: crystal structure
crystal structure = target: the molecule itself; test: crystal structure

Binder	binding result [1]	also measured
GRD2 6xAla mutant (N924A, N928A, Q929A, R930A, E931A, S1204A) (domain or fragment) GAMASKERRKTLETYQQLFYLLQTNPLYLAKLIFQMPQNKSTKFMDTVIFTLYAYASAAAAEYLLLKLFKTALEEEIKSKVDQVQDIVTGNPTVIKMVVSFNRGARGQNTLRQLLAPVVKEIIDDKSLIINTNPVEVYKAWVNQLETQTGEASKLPYDVTTEQALTYPEVKNKLEASIENLRRVTDKVLNSIISSLDLLPYGLRYIAKVLKNSIHEKFPDATEDELLKIVGNLLYYRYMNPAIVAPDGFDIIDMTAGGQINSDQRRNLGSVAKVLQHAASNKLFEGENEHLSSMNNYLSETYQEFRKYFKEACNVPEPEEKFNMDKYTDLVTVAKPVIYISIEEIISTHSLLLEHQDAIAPEKNDLLSELLGSLGEVPTVESFLGEG	binds	
human hydrolase deficient (Q61L) Cdc42 (residues 1-177), GTP-loaded (domain or fragment) not shown		stoichiometry N [2]: 2 Cdc42 per GRD; stoichiometry N [3]: 2 Cdc42 per GRD; stoichiometry N [4]: 2 Cdc42 per GRD2
GRD1 6xAla mutant (N1011A, N1015A, Q1016A, R1017A, E1018A, T1291A) (domain or fragment) GAMASKEKREKLEAYQHLFYLLQTNPTYLAKLIFQMPQNKSTKFMDSVIFTLYAYASAAAAEYLLLRLFKTALQEEIKSKVDQIQEIVTGNPTVIKMVVSFNRGARGQNALRQILAPVVKEIMDDKSLNIKTDPVDIYKSWVNQMESQTGEASKLPYDVTPEQALAHEEVKTRLDSSIRNMRAVTDKFLSAIVSSVDKIPYGMRFIAKVLKDSLHEKFPDAGEDELLKIIGNLLYYRYMNPAIVAPDAFDIIDLSAGGQLTTDQRRNLGSIAKMLQHAASNKMFLGDNAHLSIINEYLSQSYQKFRRFFQTACDVPELQDKFNVDEYSDLVTLAKPVIYISIGEIINTHTLLLDHQDAIAPEHNDPIHELLDDLGEVPTIESLIGESS	binds	
B1	binds	stoichiometry N (crystal structure): 2
B2	binds	
